# Test results as given in US20260176306A1.
# Key:
# [1] = target: H7 hemagglutinin of A/Shanghai/4664T/2013 H7N9 on pseudo virus (Influenza A virus A/Shanghai/4664T/2013 H7N9); experiment: cell-based or functional assay
# [2] = target: H7 hemagglutinin of A/Hong Kong/125/2017 H7N9 on pseudo virus (Influenza A virus A/Hong Kong/125/2017 H7N9); experiment: cell-based or functional assay
Binder,"neutralization, H7N9 2013 pseudo virus, MDCK cells, luciferase [1] [µg/mL]","neutralization IC50, H7N9 2017 pseudo virus, MDCK cells, luciferase [2] [µg/mL]"
"H7.HK4 (antibody, V domains shown) VH: QVQLQESGPGLVKPSETLSLTCTVSGGSVRSASYAWSWIRQPPGKGLEWIGDIYYSGTTNYNPSLKSRVTLSVDTAKNRFSLRLRSVTAADTAVYHCARERYYYGSSGDFDYWGQGTLVTVSS VL: DIQMTQSPSSLSASVGDRVTITCRASQGIRNYLAWFQQKPGQAPKSLIFAASSLHTGVPSRFSGSGSGTDFTLTISSLQPEDFATYYCQHYNSYPPTFGQGTKLEIK",> 10,
"H7.HK1 (antibody, V domains shown) VH: QVQLQESGPGLVKPSETLSLTCSVSGGSINSYYWTWIRQPPGKGLEWVGYIYHSGSTSYNPSLKSRITISVAPSKNHFSLELTSMTAADTAVYYCARLGGHGDYGSDYWGQGTLVTVSS VL: DIVMTQSPVSLPVTPGEPASISCNSSQSLLHSNGYAHLDWYLQKPGQSPKLMIYLGLNRAFGVPDRFSGSGSGTDFTLKISRVEAEDVGVYYCMQALQTPFTFGPGTRVDIK",,0.03
"H7.HK2 (antibody, V domains shown) VH: QVQLQGSGPGLLRPSETLSLTCSVSGVSINSYYWSWVRQPPGKALEWIGYIYYSGNTNYNPSLESRVTISVDRSKNQFSLKMTSVTAADTARYFCARQGIFGDYGSDYWGPGTLVTVSS VL: DIVMTQSPLSLPVTPGEPASISCRSNQSLQHSNGYVHLDWYRQKPGQSPHLLIYLGFNRASGVPDRFSGGGSGTDFTLKISRVEAEDVGVYYCMQGLQTPFTFGPGTTVDLK",,0.03
